Consider 116 sequences from the supplement of paper PMC10724198.

± gives the standard deviation of the averaged measurements.
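Note: PSI is a weighted mean of sequencing reads over stability bins, variants kept only with over 10 reads, mCherry proximal and sfGFP distal, peptide attached via GGGS linker.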

The subject of the data set is Saccharomyces cerevisiae. The experiment in a line: protein stability index of tFT-peptide fusion (C-terminal peptide) (PSI (0-1 scale)); higher = more stable (slower turnover). The following applies: genetic background: wild type; temperature: 30 C.
Turning to KIKTTKKIKKKK, the protein stability index turned out to be 0.681 ± 0.032.

In turn, KINKNMDYKYQK had a protein stability index of 0.673 ± 0.095.

In turn, KINPQKTEWARR showed a protein stability index of 0.689 ± 0.024.

For the sequence KKDIYRVGLKVR, the protein stability index was 0.618 ± 0.011.

With KKDMCRSSFPDC, the protein stability index came out at 0.686 ± 0.007.

Sequence KKEIGGSNWNKK displayed a protein stability index of 0.632 ± 0.09.

In turn, KKEKKKTKANKT gave a protein stability index of 0.679 ± 0.031.

In the case of KKEQPKEKQGNK, the protein stability index is 0.732 ± 0.053.

As for KKETKSNCRIKN, the protein stability index turned out to be 0.708 ± 0.017.

Take KKETRKKETKKE: the protein stability index is 0.685 ± 0.041.

The sequence KKETRRTNPEHK yielded a protein stability index of 0.765 ± 0.11.

KKGGKEEPSRRK returned a protein stability index of 0.741 ± 0.084.

KKIKKKQKKKIQ came in with a protein stability index of 0.664 ± 0.071.

On to KKKELLTKKQKD, for which the protein stability index is 0.637 ± 0.021.

On to KKKENKNEKKKE, for which the protein stability index was found to be 0.692 ± 0.06.

Take KKKGWAKEKLKR: the protein stability index is 0.75 ± 0.051.

The sequence KKKKIKKNKKQL displayed a protein stability index of 0.684 ± 0.01.

The sequence KKKKKIKNKKKK displayed a protein stability index of 0.741 ± 0.032.

In turn, KKKKKKEKGDST yielded a protein stability index of 0.716 ± 0.076.

As for KKKKKKKKKKQN, the protein stability index was found to be 0.62 ± 0.039.

For KKKKKKKKKNEK, the protein stability index was determined as 0.755 ± 0.024.

KKKKKKKNKKKT gave a protein stability index of 0.7142 ± 0.00095.

On to KKKKKKNSEKMK, for which the protein stability index was 0.704 ± 0.062.

Regarding KKKKKKQKHKKI, the protein stability index is 0.718 ± 0.033.

KKKKKRKKEEKH displayed a protein stability index of 0.721 ± 0.032.

Turning to KKKKKTQKKTKQ, the protein stability index turned out to be 0.6818 ± 0.0029.

KKKKNKNEKPKK yielded a protein stability index of 0.746 ± 0.074.

As to KKKKNNKKKKIE, the protein stability index came to 0.702 ± 0.015.

In turn, KKKKQKKKYKKT came in with a protein stability index of 0.695 ± 0.095.

The sequence KKKNEAKKKKTK came in with a protein stability index of 0.744 ± 0.058.

The sequence KKKQTKGNQKPK registered a protein stability index of 0.7623 ± 0.0011.

KKKRKRREKKQN showed a protein stability index of 0.681 ± 0.016.

For the sequence KKKTKQTKVNKK, the protein stability index was 0.64 ± 0.072.

In the case of KKNCRKNQKEET, the protein stability index stood at 0.663 ± 0.067.

Consider KKNKKQDDKKRQ, for which the protein stability index is 0.645 ± 0.039.

Consider KKNNTKKNRKRK, for which the protein stability index was 0.7 ± 0.051.

KKQAVRVEIIGR showed a protein stability index of 0.655 ± 0.018.

In turn, KKQKKKKTQTNK returned a protein stability index of 0.68224 ± 0.00034.

On to KKQKSKSAREAS, for which the protein stability index was determined as 0.658 ± 0.024.

As to KKQQKTKEKTES, the protein stability index came to 0.76 ± 0.031.

The sequence KKRKEIKNREEK had a protein stability index of 0.739 ± 0.035.

In turn, KKRKEKRKKNSI registered a protein stability index of 0.647 ± 0.016.

In turn, KKRKGKGRDIRG yielded a protein stability index of 0.7025 ± 0.0016.

In turn, KKRREKKYQHKI had a protein stability index of 0.713 ± 0.039.

KKRRTIKSQSKV returned a protein stability index of 0.6825 ± 0.0049.

On to KKSKEKGTRRQR, for which the protein stability index was 0.651 ± 0.073.

The sequence KKSKKKSKNIRK had a protein stability index of 0.694 ± 0.028.

With KKSNEKERATQQ, the protein stability index came out at 0.708 ± 0.046.

With KKSVDKNKEIKL, the protein stability index amounted to 0.681 ± 0.12.

KKTRGNNGKTQR showed a protein stability index of 0.631 ± 0.0076.

KKTSKTERDQKE yielded a protein stability index of 0.639 ± 0.015.

On to KKTTKKKRKKNK, for which the protein stability index was determined as 0.657 ± 0.018.

The sequence KKTVKNNQNNTD had a protein stability index of 0.654 ± 0.041.

As for KKVKNQGLILRW, the protein stability index came out at 0.673 ± 0.035.

Sequence KKVTEKSKNEKR came in with a protein stability index of 0.692 ± 0.053.

KLEEKRKEMERK registered a protein stability index of 0.7093 ± 0.007.

For the sequence KLEERIKRTEDK, the protein stability index stood at 0.7219 ± 0.0018.

KLKIKREKKKRK displayed a protein stability index of 0.668 ± 0.019.

Regarding KLKIMEDQGKKK, the protein stability index stood at 0.706 ± 0.12.

For KLPILDKKAVAQ, the protein stability index turned out to be 0.696 ± 0.03.

The sequence KLPPATPNSRPP returned a protein stability index of 0.714 ± 0.2.

For the sequence KLPRPRHSDCPS, the protein stability index is 0.6505 ± 0.00069.

The sequence KLQPVTTTQTIG returned a protein stability index of 0.6713 ± 0.004.

KNANLRLPWKAH came in with a protein stability index of 0.667 ± 0.029.

KNAQQYQKKQKQ registered a protein stability index of 0.797 ± 0.056.

Sequence KNEIRLKEDIRC had a protein stability index of 0.718 ± 0.017.

KNIKKKNKNDKK gave a protein stability index of 0.6936 ± 0.0063.

As to KNKKKNSRKKQQ, the protein stability index worked out at 0.702 ± 0.0083.

As to KNMKTEDLLIVN, the protein stability index was found to be 0.727 ± 0.022.

On to KNSWVLPPSPRS, for which the protein stability index is 0.68 ± 0.04.

Sequence KNVHKDNRSVKK displayed a protein stability index of 0.677 ± 0.14.

In turn, KPGGQRTRTRRR registered a protein stability index of 0.622 ± 0.025.

In turn, KPSAKRRNLFKL showed a protein stability index of 0.699 ± 0.15.

The sequence KQAPTLFLSFIL yielded a protein stability index of 0.5885 ± 0.0028.

KQDTRRHIHTTK showed a protein stability index of 0.735 ± 0.092.

KQEDIKNKKKKE came in with a protein stability index of 0.679 ± 0.032.

On to KQKKIGNKITNK, for which the protein stability index amounted to 0.667 ± 0.008.

KQKKKKKEYKKK came in with a protein stability index of 0.676 ± 0.027.

For the sequence KQKKNKNNHRKK, the protein stability index worked out at 0.761 ± 0.024.

Turning to KQKQNKIKITTQ, the protein stability index was determined as 0.656 ± 0.0077.

With KQKRKENIHIIK, the protein stability index came to 0.776 ± 0.033.

On to KQQRKNEKTNTL, for which the protein stability index was determined as 0.658 ± 0.16.

In turn, KQSIKKKKIKKT displayed a protein stability index of 0.634 ± 0.017.

For KRAREKDGKSAD, the protein stability index is 0.676 ± 0.032.

KRARLWQKRVEK showed a protein stability index of 0.754 ± 0.14.

For KREMESTTHSKT, the protein stability index was 0.5985 ± 0.0011.

KRFDKEWEIWRS showed a protein stability index of 0.733 ± 0.023.

As for KRGFSLKEARGF, the protein stability index turned out to be 0.642 ± 0.008.

On to KRGKNKKYKNRF, for which the protein stability index was determined as 0.638 ± 0.074.

KRGRAIVVQLWV displayed a protein stability index of 0.578 ± 0.021.

KRKDGVTAGVEG returned a protein stability index of 0.712 ± 0.017.

The sequence KRKETIRKKNQT registered a protein stability index of 0.734 ± 0.05.

Turning to KRKHHKREKKKK, the protein stability index was 0.677 ± 0.042.

Regarding KRKKEKRKEERK, the protein stability index is 0.779 ± 0.011.

Consider KRKKIQNRGKKK, for which the protein stability index worked out at 0.718 ± 0.0086.

On to KRRAERKKRSKG, for which the protein stability index amounted to 0.6731 ± 0.006.

In turn, KRRRYKEKPRKR showed a protein stability index of 0.665 ± 0.12.

For KRWKSKYELGST, the protein stability index turned out to be 0.68 ± 0.063.

Regarding KRYRKGGRPMRA, the protein stability index is 0.66 ± 0.06.

In turn, KSARSYSMEGEI yielded a protein stability index of 0.673 ± 0.016.

Sequence KSFQLEHKYTRN came in with a protein stability index of 0.737 ± 0.029.

Consider KSGGWLWGGGGG, for which the protein stability index was 0.663 ± 0.054.

Regarding KSGHYVVSYSGV, the protein stability index was found to be 0.678 ± 0.0045.

KSPDSLDIRFHT: the protein stability index was determined as 0.714 ± 0.13.

KSQATELKKVNG yielded a protein stability index of 0.65 ± 0.037.

As for KSRGYSKQQIRG, the protein stability index was found to be 0.72 ± 0.015.

For the sequence KSSNYSTEDVKI, the protein stability index is 0.697 ± 0.014.

KSSSVRQGWEGC displayed a protein stability index of 0.728 ± 0.081.

Sequence KTGATAIKKINK returned a protein stability index of 0.695 ± 0.039.

The sequence KTKEYKYEKRKT came in with a protein stability index of 0.596 ± 0.027.

In turn, KTKKIMPEQIKK showed a protein stability index of 0.616 ± 0.017.

Sequence KTKKKKEQTKKK displayed a protein stability index of 0.808 ± 0.15.

Regarding KTKKKYENRKKK, the protein stability index amounted to 0.684 ± 0.0094.

Regarding KTKKNKQKSKKK, the protein stability index was found to be 0.705 ± 0.034.

With KTKKQEKNNKSK, the protein stability index stood at 0.685 ± 0.029.

KTLRRGYDWLQG registered a protein stability index of 0.681 ± 0.038.
